Experimental data: US20050196403A1 (published 2005)
“And” between values parts separate entries of the source, which are not always exact repeats. Identical values can stand only once. Non-standard residues stand in square brackets, D forms with d. No end group written: not given here. Abu = CC[C@H](N)C(=O)O

What was measured:
HLA-A*0203 = HLA-A*0203 (Human); assay: competition vs 125I probe, purified HLA
HLA-B*0702 [1] = biological target: HLA-B*0702 (Human); assay: competition vs 125I probe, purified HLA
HLA-B*5101 = HLA-B*5101 (Human); assay: competition vs 125I probe, purified HLA
HLA-A*0206 [2] = biological target: HLA-A*0206 (human); assay: competition with 125I probe peptide, purified HLA class I
HLA-A*0201 = HLA-A*0201 (human); assay: as above
HLA-B*0702 [3] = biological target: HLA-B*0702 (Human)
HLA-A*0301 = HLA-A*0301 (human); assay: competition with 125I probe peptide, purified HLA class I
HLA-A*3101 = HLA-A*3101 (human); assay: as above
HLA-A*6801 = HLA-A*6801 (human); assay: as above
HLA-A*1101 = HLA-A*1101 (human); assay: as above
HLA-B*5401 = HLA-B*5401 (Human); assay: competition vs 125I probe, purified HLA
HLA-B*3501 = HLA-B*3501 (Human); assay: competition vs 125I probe, purified HLA
HLA-B*5301 = HLA-B*5301 (Human); assay: competition vs 125I probe, purified HLA
HLA-A*0206 [4] = biological target: HLA-A*0206 (Human); assay: competition vs 125I probe, purified HLA
HLA-A*0101 = HLA-A*0101 (human); assay: competition with 125I probe peptide, purified HLA class I

For HLIRVEGNLRV [p53.193 HLIRVEGNLRV], the IC50 (HLA-A*0203) was 83 nM.

FPPGSTKRAL [48.0196 FPPGSTKRAL (p53)] was tested, and the IC50 (HLA-B*0702 [1]) was 0.79 nM and the IC50 (HLA-B*5101) was 6110 nM.

FPQPKKKPI [48.0127 FPQPKKKPI (p53)] gave an IC50 (HLA-B*0702 [1]) of 0.61 nM.

FPQPKKKPL [48.0128 FPQPKKKPL (p53)] was tested, and the IC50 (HLA-B*0702 [1]) was 2.3 nM.

CTTIHYNYM [1329.04 CTTIHYNYM p53.229] showed an IC50 (HLA-A*0206 [2]) of 561 nM.

For FPGTRVRAI [48.0123 FPGTRVRAI (p53.152.F1)], the IC50 (HLA-B*0702 [1]) was 1.1 nM and the IC50 (HLA-B*5101) was 663 nM.

In the case of LLGRDSFEV [LLGRDSFEV mp53.261], the IC50 (HLA-A*0201) is reported as 41.7 nM and 27.8 nM.

With KPLDGEYFTL [p53 peptide KPLDGEYFTL (position 321, 10 amino acids)] the “binding affinity ratio (IC50 of standard peptide / IC50 of test peptide)” value (HLA-B*0702 [3]) was 0.0055 ratio.

In the case of SV[Abu]MGGMNRR [1371.27 SVBMGGMNRR p53.240.V2B3], the IC50 (HLA-A*0301) is reported as 1000 nM, the IC50 (HLA-A*3101) is reported as 621 nM and the IC50 (HLA-A*6801) is reported as 11.4 nM. For the same binder, the IC50 (HLA-A*1101) was 25 nM.

In the case of TPAAPAPA [p53 peptide TPAAPAPA (position 81, 8 amino acids)], the “binding affinity ratio (IC50 of standard peptide / IC50 of test peptide)” value (HLA-B*0702 [3]) is reported as 0.0041 ratio.

FPALNKMFCQL [48.0234 FPALNKMFCQL (p53.127.F1)] gave an IC50 (HLA-B*0702 [1]) of 0.052 nM, an IC50 (HLA-B*5101) of 5500 nM and an IC50 (HLA-B*5401) of 500 nM.

Binder FPALNKMF [48.0055 FPALNKMF (p53.127.F1)] has an IC50 (HLA-B*3501) of 3000 nM, an IC50 (HLA-B*0702 [1]) of 0.025 nM and an IC50 (HLA-B*5301) of 6200 nM.

Work on KVF[Abu]QLAK [1371.18 KVFBQLAK p53.132.V2B4] yielded an IC50 (HLA-A*0301) of 846 nM and an IC50 (HLA-A*3101) of 7500 nM.

For MPEAAPPV [p53 peptide MPEAAPPV (position 66, 8 amino acids)], the “binding affinity ratio (IC50 of standard peptide / IC50 of test peptide)” value (HLA-B*0702 [3]) was 0.0028 ratio.

With LPENNVLSPL [p53 peptide LPENNVLSPL (position 26, 10 amino acids)] the “binding affinity ratio (IC50 of standard peptide / IC50 of test peptide)” value (HLA-B*0702 [3]) was 0.007 ratio.

Binder RV[Abu]A[Abu]PGRDRK [1371.31 RVBABPGRDRK p53.273.B3B5K11] has an IC50 (HLA-A*6801) of 2500 nM and an IC50 (HLA-A*1101) of 200 nM.

For BVYSPALNR (B at position 1 is alpha-amino butyric acid (in place of cysteine)) [1371.17 BVYSPALNR p53.124.B1V2R9], the IC50 (HLA-A*0301) was 25 nM, the IC50 (HLA-A*6801) was 14.8 nM and the IC50 (HLA-A*1101) was 8.3 nM.

SPLPSQAM [p53 peptide SPLPSQAM (position 33, 8 amino acids)] was tested, and the “binding affinity ratio (IC50 of standard peptide / IC50 of test peptide)” value (HLA-B*0702 [3]) was 0.0044 ratio.

In the case of LPSQAMDDL [p53 peptide LPSQAMDDL (position 35, 9 amino acids)], the “binding affinity ratio (IC50 of standard peptide / IC50 of test peptide)” value (HLA-B*0702 [3]) is reported as 0.0038 ratio.

Binder CTTIHYNYM [p53.229 CTTIHYNYM] has an IC50 (HLA-A*0206 [4]) of 561 nM.

Binder GTDKSVTCTY [57.0126 GTDKSVTCTY p53.117.D3] has an IC50 (HLA-A*0101) of 42.4 nM.
